Paper PMC2592828

Experiments:
Test in all cases: far-Western, overlay or dot blot
[1] = molecular target: p150^Glued subunit of dynactin (endogenous, band in total extracts) (UniProt Q14203)
[2] = molecular target: zw10 (endogenous, ~90-kD band) (UniProt O43264)
[3] = molecular target: recombinant IC-2C T89D mutant
[4] = molecular target: recombinant IC-2C T89E mutant

UniProt O43264, sequence (O43264 whole entry): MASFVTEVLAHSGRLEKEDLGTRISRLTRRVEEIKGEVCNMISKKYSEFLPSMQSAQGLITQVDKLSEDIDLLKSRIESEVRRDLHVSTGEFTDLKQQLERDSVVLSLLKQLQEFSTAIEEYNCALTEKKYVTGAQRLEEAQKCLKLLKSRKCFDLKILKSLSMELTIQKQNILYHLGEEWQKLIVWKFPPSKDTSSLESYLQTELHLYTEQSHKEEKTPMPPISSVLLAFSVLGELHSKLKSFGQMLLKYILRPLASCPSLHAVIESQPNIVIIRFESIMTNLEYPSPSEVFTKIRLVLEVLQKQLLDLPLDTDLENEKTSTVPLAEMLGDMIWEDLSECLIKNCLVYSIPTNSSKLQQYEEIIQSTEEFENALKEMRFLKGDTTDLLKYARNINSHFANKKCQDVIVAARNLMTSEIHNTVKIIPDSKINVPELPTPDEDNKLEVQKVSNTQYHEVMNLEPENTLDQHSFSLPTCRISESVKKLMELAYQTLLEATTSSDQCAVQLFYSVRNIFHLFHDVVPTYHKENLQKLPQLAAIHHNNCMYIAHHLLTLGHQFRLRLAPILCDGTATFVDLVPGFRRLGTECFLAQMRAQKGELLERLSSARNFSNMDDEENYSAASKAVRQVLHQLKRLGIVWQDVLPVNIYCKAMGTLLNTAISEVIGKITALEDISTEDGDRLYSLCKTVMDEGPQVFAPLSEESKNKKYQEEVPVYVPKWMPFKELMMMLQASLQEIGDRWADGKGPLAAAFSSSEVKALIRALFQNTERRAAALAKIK
UniProt Q14203, sequence (Q14203 whole entry): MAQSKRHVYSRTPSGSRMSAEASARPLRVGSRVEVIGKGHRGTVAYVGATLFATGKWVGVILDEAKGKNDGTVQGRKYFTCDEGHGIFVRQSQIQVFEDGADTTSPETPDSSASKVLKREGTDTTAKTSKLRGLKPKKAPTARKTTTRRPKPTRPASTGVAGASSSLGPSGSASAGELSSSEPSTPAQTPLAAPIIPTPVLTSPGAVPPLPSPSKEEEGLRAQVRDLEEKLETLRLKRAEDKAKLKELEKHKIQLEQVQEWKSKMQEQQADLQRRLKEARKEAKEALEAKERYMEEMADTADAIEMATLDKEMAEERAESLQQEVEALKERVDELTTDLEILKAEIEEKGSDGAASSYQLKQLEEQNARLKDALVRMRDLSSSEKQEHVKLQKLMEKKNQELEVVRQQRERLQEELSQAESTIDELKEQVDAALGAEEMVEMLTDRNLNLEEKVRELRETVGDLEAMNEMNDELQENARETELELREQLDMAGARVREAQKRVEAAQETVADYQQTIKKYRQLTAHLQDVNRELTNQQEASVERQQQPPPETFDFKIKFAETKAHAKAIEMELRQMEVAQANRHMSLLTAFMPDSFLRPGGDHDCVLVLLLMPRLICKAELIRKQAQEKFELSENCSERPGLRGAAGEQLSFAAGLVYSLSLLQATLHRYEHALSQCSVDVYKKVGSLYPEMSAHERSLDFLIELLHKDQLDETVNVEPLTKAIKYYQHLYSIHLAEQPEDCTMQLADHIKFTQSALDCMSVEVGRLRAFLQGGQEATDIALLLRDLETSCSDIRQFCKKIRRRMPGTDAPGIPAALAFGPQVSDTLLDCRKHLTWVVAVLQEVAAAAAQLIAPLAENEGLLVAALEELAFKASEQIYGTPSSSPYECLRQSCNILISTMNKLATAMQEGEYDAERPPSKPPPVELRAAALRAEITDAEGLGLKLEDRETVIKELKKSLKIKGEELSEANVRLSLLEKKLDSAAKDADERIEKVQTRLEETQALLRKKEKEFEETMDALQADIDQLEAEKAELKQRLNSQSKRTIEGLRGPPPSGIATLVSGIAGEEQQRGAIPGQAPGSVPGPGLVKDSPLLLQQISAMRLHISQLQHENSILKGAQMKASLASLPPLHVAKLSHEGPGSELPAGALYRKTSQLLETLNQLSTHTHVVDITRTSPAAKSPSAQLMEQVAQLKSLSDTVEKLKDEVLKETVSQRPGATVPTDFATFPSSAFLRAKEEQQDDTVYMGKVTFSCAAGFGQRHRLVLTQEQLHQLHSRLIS

| overlay signal as percent of the endogenous IC band [1] [%] | overlay signal as percent of the endogenous IC band [2] [%] | percent increase in binding against dephospho-ICs [2] [%] | fold reduction in binding against the wild type [3] [fold] | fold reduction in binding against the wild type [4] [fold] | Substance |
| --- | --- | --- | --- | --- | --- |
| 55.4 | 96.2 | 100 |  |  | recombinant IC-2C fragment (residues 1-284) phosphorylated in vitro (phospho-ICs) (domain or fragment) |
| 83 | 31.1 |  |  |  | recombinant IC-2C fragment spanning residues 1-284 (dephosphorylated ICs) (domain or fragment) |
|  |  |  | 4 | 4 | recombinant p150^Glued fragment spanning residues 1-811 (from UniProt P28023 1-811) (domain or fragment) |
